The term Kd denotes the constant that tells how readily two partners part at equilibrium. The term koff denotes the rate constant with which the complex falls apart. For orientation: kon means a measure of how fast the partners come together.

The values that follow come from patent US20150361176A1 (GlaxoSmithKline, published 2015).

Several values for one entry are separate records, joined by “and”; a condition that tells them apart may be missing. Equal values may be shown once.

Assay [1] has as its target T1, recombinant human TGF-β RII/Fc chimera protein (human, UniProt P37173 24-159).
T1 construct: range 24-159; Made in HEK-F cells; Biotinylated where it was put on SA chips, otherwise captured by anti-human IgG; also called human TGFbRII/Fc; hRII-Fc; not shown: Fc region of human IgG1
The experiment in a line: SPR Biacore, human TGFbRII-FC, 1:1 model (poor fit, ranking only). In general terms: SPR reads the build-up and loss of mass on a sensor chip optically.

Assay [2] has as its target T1, recombinant human TGF-β RII/Fc chimera …. As to the kind of experiment: SPR Biacore T100, human TGFbRII-FC, 1:1 model. The method, then: Triplet or doped libraries in separate CDR1, CDR2 and CDR3 pools were subjected to rounds of phage selection as described above against either biotinylated human TGF-β RII/Fc antigen over 4 rounds in concentrations of 10 nM, 1 nM, 100 pM and 20 pM respectively, or two rounds of selection using 20 pM followed by 2 pM antigen. Inserts from phage selections were cloned into the pDOM10 expression vector and supernatants with off rates improved over parent were selected for further study. Domain antibodies were expressed and purified their affinity and bioactivity against human TGF-β RII/Fc antigen tested on the BIACORE™ T100 and in the Cell sensor assay described above (data not shown).
BIACORE™ analysis was carried out using a capture surface on a CM4 chip. Anti-human IgG was used as the capturing agent and coupled to a CM4 biosensor chip by primary amine coupling. The Antigen molecule fused to the human Fc was captured on this immobilised surface to a level from 250 to 300 resonance units and defined concentrations of Domain antibodies diluted in running buffer were passed over this captured surface. An injection of buffer over the captured antigen surface was used for double referencing. […] All runs were carried out at 25° C. using HBS-EP buffer as running buffer. Data were generated using the BIACORE™ T100 and fitted to the 1:1 binding model inherent to the software.

The target of assay [3] is T2, mouse TGF-βRII on MC3T3-E1 cells (mouse osteoblasts) (mouse, UniProt Q62312 24-567).
T2 sequence (looked up): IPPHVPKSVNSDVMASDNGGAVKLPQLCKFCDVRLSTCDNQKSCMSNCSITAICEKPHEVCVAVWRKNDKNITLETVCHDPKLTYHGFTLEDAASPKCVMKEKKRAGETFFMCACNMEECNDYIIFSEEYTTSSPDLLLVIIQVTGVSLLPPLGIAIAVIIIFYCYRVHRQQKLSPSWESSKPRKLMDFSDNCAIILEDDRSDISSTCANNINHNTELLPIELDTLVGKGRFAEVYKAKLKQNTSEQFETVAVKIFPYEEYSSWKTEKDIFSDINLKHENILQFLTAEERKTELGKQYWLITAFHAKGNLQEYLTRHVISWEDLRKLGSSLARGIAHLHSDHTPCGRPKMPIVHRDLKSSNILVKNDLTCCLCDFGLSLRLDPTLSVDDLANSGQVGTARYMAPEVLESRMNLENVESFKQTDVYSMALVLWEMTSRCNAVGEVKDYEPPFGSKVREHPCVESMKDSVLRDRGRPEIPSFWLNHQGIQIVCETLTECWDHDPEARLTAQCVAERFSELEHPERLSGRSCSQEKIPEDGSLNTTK
As to the kind of experiment: cell-based or functional assay.

The target of assay [4] is human TGF-βRII on cells (SBE-bla HEK 293T cells; A549 cells) (human, UniProt P37173 23-567). As to the kind of experiment: cell-based or functional assay.
For assay [5], the target named is T3, recombinant mouse TGF-β RII/Fc chimera protein (mouse; human, UniProt Q62312-1 24-184).
T3 construct: Residue limits are printed only for the human receptor; also called mouse TGFbRII-Fc; mRII-Fc; not shown: Fc region; the assays speak of antigen fused to the human Fc
T3 sequence (looked up): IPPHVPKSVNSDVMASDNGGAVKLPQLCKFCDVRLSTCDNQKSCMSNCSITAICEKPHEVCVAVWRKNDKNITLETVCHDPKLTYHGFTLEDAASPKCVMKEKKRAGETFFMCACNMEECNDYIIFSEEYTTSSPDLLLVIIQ
The experiment in a line: SPR Biacore.

For assay [6], the target named is T1, recombinant human TGF-β RII/Fc chimera …. The experiment in a line: SPR Biacore.
In another assay the target is T4, cynomolgus TGF-β RII/Fc (cynomolgus).
T4 construct: extracellular domain; also called Cyno TGFBRII; Cyno TGFbRII
As to the kind of experiment: SPR Biacore.

T1 sequence (P37173 24-159 limits assumed, change not shown): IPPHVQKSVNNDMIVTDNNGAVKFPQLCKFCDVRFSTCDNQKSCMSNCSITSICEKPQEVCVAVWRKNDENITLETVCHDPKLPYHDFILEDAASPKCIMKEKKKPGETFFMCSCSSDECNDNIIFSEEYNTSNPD
human TGF-βRII on cells (SBE-bla HEK 293T cells; A549 cells), sequence (P37173 23-567): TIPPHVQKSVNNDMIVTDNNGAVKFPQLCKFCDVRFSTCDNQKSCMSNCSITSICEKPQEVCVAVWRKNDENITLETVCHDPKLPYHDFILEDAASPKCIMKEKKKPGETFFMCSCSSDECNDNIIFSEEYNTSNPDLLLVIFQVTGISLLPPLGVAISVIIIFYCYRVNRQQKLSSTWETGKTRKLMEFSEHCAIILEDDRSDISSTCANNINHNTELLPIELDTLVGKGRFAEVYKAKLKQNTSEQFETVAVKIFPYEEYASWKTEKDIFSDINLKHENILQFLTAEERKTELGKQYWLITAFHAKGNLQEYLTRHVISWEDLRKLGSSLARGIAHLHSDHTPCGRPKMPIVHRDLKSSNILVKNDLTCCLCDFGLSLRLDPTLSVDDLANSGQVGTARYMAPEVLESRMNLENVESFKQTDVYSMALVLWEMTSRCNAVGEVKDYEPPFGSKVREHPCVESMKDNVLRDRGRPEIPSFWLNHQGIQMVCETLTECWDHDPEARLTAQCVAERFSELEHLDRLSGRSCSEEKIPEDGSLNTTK

B1: DOM23h-271-7 (VHH)
VHH: EVQLLESGGGLVQPGGSLRLSCAASGFTFTEYRMWWVRQAPGKGLEWVSAIEPIGNRTYYADSVKGRFTISRDNSKNTLYLQMNSLRAEDTAVYYCAKQIPGRKWTANSRFDYWGQGTLVTVSS
notes: human VH dAb; also called 271-7a; 271-7b
Turning to B1, in assay [1], the Kd is 9.49 nM, the koff stood at 0.051 s⁻¹ and the kon is 5.37e+06 M⁻¹ s⁻¹. In addition, in assay [2], the Kd was 13.8 nM and 18.4 nM; the koff is 0.0419 s⁻¹ and 0.0445 s⁻¹; the kon is 3.04e+06 M⁻¹ s⁻¹ and 2.42e+06 M⁻¹ s⁻¹.

B2: DOM23h-271-39 (VHH)
VHH: EVQLLESGGGLVQPGGSLRLSCAASGFTFTEYRMWWVRQAPGKGLEWVSAIEPIGNRTYYARSVDGRFTISRDNSKNTLYLQMNSLRAEDTAVYYCAKQMPGQKWMAKSRFDYWGQGTLVTVSS
notes: human VH dAb; also called DOM23h-271-22 plus D61R K64D; RD
On to B2, for which the “Mouse 3T3 Luciferase assay IC50” value in assay [3] came out at 11100 nM. Further, the “Human Cell sensor IC50” value in assay [4] worked out at 1.17 nM. For the same molecule, the Kd came out at 1.78 nM in assay [5], 0.0149 nM in assay [6] and 0.024 nM in the assay with cynomolgus TGF-β RII/Fc.

B3: DOM23h-271-40 (VHH)
VHH: EVQLLESGGGLVQPGGSLRLSCAASGFTFTEYRMWWVRQAPGKGLEWVSAIEPIGNRTYYARSVFGRFTISRDNSKNTLYLQMNSLRAEDTAVYYCAKQMPGQKWMAKSRFDYWGQGTLVTVSS
notes: human VH dAb; also called DOM23h-271-22 plus D61R K64F; RF
For B3, the “Mouse 3T3 Luciferase assay IC50” value in assay [3] turned out to be 1200 nM. In addition, in assay [4], the “Human Cell sensor IC50” value is 0.53 nM. For the same molecule, the Kd in assay [5] amounted to 0.548 nM; in assay [6], 0.00999 nM; with cynomolgus TGF-β RII/Fc, 0.0112 nM.
